How the values were obtained:
[1] = target: wild-type SecA-SecYEG translocase (SecA bound to SecYEG-inverted inner membrane vesicles) (E. coli) (UniProt P10408); assay: co-sedimentation
[2] = target: SecA(LCt) (locked C-tail) bound to SecYEG-inverted membrane vesicles (E. coli) (UniProt P10408); assay: co-sedimentation
[3] = target: native PhoA (E. coli) [phosphatase: P00634]; assay: native MS
[4] = target: wild-type SecA-SecYEG translocase (SecA bound to SecYEG-inverted inner membrane vesicles) (E. coli, UniProt P10408;P0AGA2;P0AG96;P0AG99); assay: co-sedimentation
Chain of wild-type SecA-SecYEG translocase (SecA bound to SecYEG-inverted inner membrane vesicles) (P10408 whole entry, chain 1 of 4): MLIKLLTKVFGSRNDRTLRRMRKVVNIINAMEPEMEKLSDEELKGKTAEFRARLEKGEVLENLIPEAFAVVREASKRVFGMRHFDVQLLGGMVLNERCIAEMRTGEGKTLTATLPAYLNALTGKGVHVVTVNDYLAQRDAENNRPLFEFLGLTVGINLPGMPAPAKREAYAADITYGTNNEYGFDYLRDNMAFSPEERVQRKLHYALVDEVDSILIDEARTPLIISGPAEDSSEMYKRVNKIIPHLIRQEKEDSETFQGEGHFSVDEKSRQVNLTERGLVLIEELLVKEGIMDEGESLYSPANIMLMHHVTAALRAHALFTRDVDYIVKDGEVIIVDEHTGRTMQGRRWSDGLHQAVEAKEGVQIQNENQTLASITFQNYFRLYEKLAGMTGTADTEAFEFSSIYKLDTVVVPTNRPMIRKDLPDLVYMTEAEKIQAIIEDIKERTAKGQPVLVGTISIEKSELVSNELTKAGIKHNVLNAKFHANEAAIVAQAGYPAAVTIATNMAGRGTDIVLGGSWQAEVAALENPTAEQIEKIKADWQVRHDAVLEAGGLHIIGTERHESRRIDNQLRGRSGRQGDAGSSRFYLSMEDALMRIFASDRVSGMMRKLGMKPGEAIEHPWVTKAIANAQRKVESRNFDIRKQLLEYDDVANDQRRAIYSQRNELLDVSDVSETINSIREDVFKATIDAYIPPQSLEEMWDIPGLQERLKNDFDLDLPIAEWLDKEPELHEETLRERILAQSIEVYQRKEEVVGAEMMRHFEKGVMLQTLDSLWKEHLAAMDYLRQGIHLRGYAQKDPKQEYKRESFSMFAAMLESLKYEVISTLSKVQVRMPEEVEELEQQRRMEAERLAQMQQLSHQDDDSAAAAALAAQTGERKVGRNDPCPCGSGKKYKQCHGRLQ
Chain of wild-type SecA-SecYEG translocase (SecA bound to SecYEG-inverted inner membrane vesicles) (P0AGA2 whole entry, chain 2 of 4): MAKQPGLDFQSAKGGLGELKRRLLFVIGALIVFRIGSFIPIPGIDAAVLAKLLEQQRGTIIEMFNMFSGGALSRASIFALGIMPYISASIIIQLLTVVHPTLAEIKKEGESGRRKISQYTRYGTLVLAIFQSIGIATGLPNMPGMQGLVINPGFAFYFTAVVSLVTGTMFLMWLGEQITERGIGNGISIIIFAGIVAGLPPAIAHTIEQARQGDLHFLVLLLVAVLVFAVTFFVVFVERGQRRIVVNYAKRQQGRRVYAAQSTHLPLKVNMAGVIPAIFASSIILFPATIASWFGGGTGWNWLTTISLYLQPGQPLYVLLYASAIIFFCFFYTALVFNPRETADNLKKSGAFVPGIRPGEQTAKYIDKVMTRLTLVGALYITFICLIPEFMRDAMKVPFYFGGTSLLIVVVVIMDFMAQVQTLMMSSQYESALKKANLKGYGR
Chain of wild-type SecA-SecYEG translocase (SecA bound to SecYEG-inverted inner membrane vesicles) (P0AG96 whole entry, chain 3 of 4): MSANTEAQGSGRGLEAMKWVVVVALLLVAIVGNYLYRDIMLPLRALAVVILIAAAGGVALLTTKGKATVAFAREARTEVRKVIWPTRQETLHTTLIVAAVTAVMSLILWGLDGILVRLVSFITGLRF
Chain of wild-type SecA-SecYEG translocase (SecA bound to SecYEG-inverted inner membrane vesicles) (P0AG99 whole entry, chain 4 of 4): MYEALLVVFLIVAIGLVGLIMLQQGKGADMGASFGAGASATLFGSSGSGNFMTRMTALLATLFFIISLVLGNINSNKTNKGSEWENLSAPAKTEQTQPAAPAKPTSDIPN

Chain of wild-type SecA-SecYEG translocase (SecA bound to SecYEG-inverted inner membrane vesicles) (E. coli) (P10408 whole entry, chain 1 of 4): as the sequence (P10408 whole entry, chain 1 of 4) above
Chain of wild-type SecA-SecYEG translocase (SecA bound to SecYEG-inverted inner membrane vesicles) (E. coli) (P0AGA2 whole entry, chain 2 of 4, further chain): as the sequence (P0AGA2 whole entry, chain 2 of 4) above
Chain of wild-type SecA-SecYEG translocase (SecA bound to SecYEG-inverted inner membrane vesicles) (E. coli) (P0AG96 whole entry, chain 3 of 4, further chain): as the sequence (P0AG96 whole entry, chain 3 of 4) above
Chain of wild-type SecA-SecYEG translocase (SecA bound to SecYEG-inverted inner membrane vesicles) (E. coli) (P0AG99 whole entry, chain 4 of 4, further chain): as the sequence (P0AG99 whole entry, chain 4 of 4) above
Chain of HdeA(noMTS) (P0AES9 22-110): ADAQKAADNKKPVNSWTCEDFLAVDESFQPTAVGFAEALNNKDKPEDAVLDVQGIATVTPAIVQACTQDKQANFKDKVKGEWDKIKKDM
Chain of SecA(LCt) (locked C-tail) bound to SecYEG-inverted membrane vesicles (E. coli) (P10408 whole entry, chain 1 of 4): as the sequence (P10408 whole entry, chain 1 of 4) above
Chain of SecA(LCt) (locked C-tail) bound to SecYEG-inverted membrane vesicles (E. coli) (P0AGA2 whole entry, chain 2 of 4, further chain): as the sequence (P0AGA2 whole entry, chain 2 of 4) above
Chain of SecA(LCt) (locked C-tail) bound to SecYEG-inverted membrane vesicles (E. coli) (P0AG96 whole entry, chain 3 of 4, further chain): as the sequence (P0AG96 whole entry, chain 3 of 4) above
Chain of SecA(LCt) (locked C-tail) bound to SecYEG-inverted membrane vesicles (E. coli) (P0AG99 whole entry, chain 4 of 4, further chain): as the sequence (P0AG99 whole entry, chain 4 of 4) above
Chain of Lpp(noMTS) (P69776 21-78): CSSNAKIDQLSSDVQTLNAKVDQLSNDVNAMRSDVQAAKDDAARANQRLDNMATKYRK
Chain of YncJ(noMTS) (P64459 23-76): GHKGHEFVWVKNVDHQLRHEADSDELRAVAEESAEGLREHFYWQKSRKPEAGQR
Chain of PhoA (mature domain of proPhoA, signal peptide-less, urea-purified) (P00634 22-471): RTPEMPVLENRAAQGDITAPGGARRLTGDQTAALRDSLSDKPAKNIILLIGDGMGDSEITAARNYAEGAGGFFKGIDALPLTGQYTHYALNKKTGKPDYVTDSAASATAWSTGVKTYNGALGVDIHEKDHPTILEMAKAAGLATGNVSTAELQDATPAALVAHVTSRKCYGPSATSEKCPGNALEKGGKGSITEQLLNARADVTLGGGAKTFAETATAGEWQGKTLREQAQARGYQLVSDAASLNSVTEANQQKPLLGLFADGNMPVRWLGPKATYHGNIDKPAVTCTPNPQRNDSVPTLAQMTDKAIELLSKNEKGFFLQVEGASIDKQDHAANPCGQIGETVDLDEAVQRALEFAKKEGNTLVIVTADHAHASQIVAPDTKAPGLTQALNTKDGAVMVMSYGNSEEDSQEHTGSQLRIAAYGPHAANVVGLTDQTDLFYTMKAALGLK

Molecule | Kd [1] [µM] | further results
HdeA(noMTS) (from UniProt P0AES9 22-110) (natural protein) | > 20 | 
Lpp(noMTS) (from UniProt P69776 21-78) (natural protein) | > 20 | 
PhoA (mature domain of proPhoA, signal peptide-less, urea-purified) (from UniProt P00634 22-471) (natural protein) |  | fold reduction of affinity against the wild-type translocase [2]: 18 fold
YncJ(noMTS) (from UniProt P64459 23-76) (natural protein) | > 20 | 
native PhoA (from UniProt P00634 22-471) (enzyme) |  | stoichiometry N [3]: 2
MKQSTIALALLPLLFTPVTKARTPEMPVLE [signal peptide of proPhoA, proPhoA(1–30)] |  | Kd [4]: ~3 µM

— publication PMC5412566 (The Journal of Cell Biology, 2017)
